This is an account of results in publication PMC6116203.

For the assay, the target named is R1 pyocin fiber PLES_06171 fragment (residues 323–701) (Pseudomonas aeruginosa LESB58). The assay is described as follows: crystal structure.

By stoichiometry N is commonly meant the number of molecules, sites or subunits per partner or assembly.

“R1 pyocin fiber PLES_06171 fragment (residues 323–701) (domain or fragment)” had a stoichiometry N of 3.
